Measured values from FireProtDB (doi:10.1016/j.bbapap.2007.05.016).
Values joined by “and” are separate entries in the source; they are usually repeats but may differ in a detail not shown here. Equal values may be shown once.

B1: Chitosanase, P33665 (parent)
chain: MHSQHRTARIALAVVLTAIPASLATAGVGYASTQASTAVKAGAGLDDPHKKEIAMELVSSAENSSLDWKAQYKYIEDIGDGRGYTGGIIGFCSGTGDMLELVQHYTDLEPGNILAKYLPALKKVNGSASHSGLGTPFTKDWATAAKDTVFQQAQNDERDRVYFDPAVSQAKADGLRALGQFAYYDAIVMHGPGNDPTSFGGIRKTAMKKARTPAQGGDETTYLNAFLDARKAAMLTEAAHDDTSRVDTEQRVFLKAGNLDLNPPLKWKTYGDPYVINS

Variants of: B1
Conditions: Streptomyces sp. (strain N174), pH 4.5, Thermal, Fluorescence, reversible: No, structure 1CHK, whole UniProt chain shown

MHSQHRTARIALAVVLTAIPASLATAGVGYASTQASTAVKAGAGLDDPHKKEIAMELVSSAENSSLDWKAQYKYIEDIGDGRGYTGGIIGFCSGTGDMLELVQHYTDLEPGNILAKYLPALKKVNGSASHSGLGTPFTKDWATAAKDTVFQQAQNDERDRVYFDPAVSQAKADGLRALGQFAYYDAIVMHGPGNDPTSFGGIRRTAMKKARTPAQGGDETTYLNAFLDARKAAMLTEAAHDDTSRVDTEQRVFLKAGNLDLNPPLKWKTYGDPYVINS [K204R]
change of melting temperature, mutant - wild type (higher = more stable) (Sodium acetate 100 mM): -1 °C and -0.2 °C and -0.9 °C

MHSQHRTARIALAVVLTAIPASLATAGVGYASTQASTAVKAGAGLDDPHKKEIAMELVSSAENSSLDWKAQYKYIEDIGDGRGYTGGIIGFCSGTGDMLELVQHYTDLEPGNILAKYLPALKKVNGSASHSGLGTPFTKDWATLAKDTVFQQAQNDERDRVYFDPAVSQAKADGLRALGQFAYYDAIVMHGPGNDPTSFGGIRKTAMKKARTPAQGGDETTYLNAFLDARKAAMLTEAAHDDTSRVDTEQRVFLKAGNLDLNPPLKWKTYGDPYVINS [A144L]
Tm (Sodium acetate 50 mM): 48 °C | change of melting temperature, mutant - wild type (higher = more stable) (Sodium acetate 50 mM): -5.5 °C | change of melting temperature, mutant - wild type (higher = more stable) (Sodium acetate 100 mM): -5.3 °C and -6.2 °C and -7 °C
